Measured values published in paper PMC12196458, “An Alternative Mechanism of Glutamate Dehydrogenase Inhibition by EGCG: Promotion of Protein Degradation” (Pharmaceuticals, 2025).

Target: the molecule itself
Test: native gel or EMSA; native-PAGE of 2.5 mg/mL bovine GDH without EGCG or trypsin

B1: bovine glutamate dehydrogenase (enzyme)
chain: not shown
notes: Glutamate dehydrogenase 1, bovine, commercial preparation; Used as a substitute for wild-type human GDH in the gel experiments; also called Bovine GDH; Bo.GDH
stoichiometry N: 6
